This note sets out measurements from patent US7005258 (NATIONAL INSTITUTES OF HEALTH, dated 2006).

For the experiment, the target named is T1, human cdc2 (p34^cdc2, endogenous, HeLa cells) (human, UniProt P06493 1-297).
T1 construct: On p13 beads it is present as cdc2/cyclin B; also called p34^cdc2 kinase
Nature of the experiment: precipitation on p13 beads from HeLa lysate.

T1 sequence (P06493 whole entry): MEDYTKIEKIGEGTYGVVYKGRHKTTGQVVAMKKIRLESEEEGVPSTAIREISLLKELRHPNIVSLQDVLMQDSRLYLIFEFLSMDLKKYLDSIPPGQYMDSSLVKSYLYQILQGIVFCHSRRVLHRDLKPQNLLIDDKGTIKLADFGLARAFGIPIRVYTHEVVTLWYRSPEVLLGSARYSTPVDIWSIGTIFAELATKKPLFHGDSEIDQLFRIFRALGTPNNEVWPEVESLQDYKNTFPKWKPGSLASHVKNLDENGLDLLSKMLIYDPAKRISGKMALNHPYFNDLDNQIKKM

B1: p13 protein encoded by the suc1 gene (other, fission yeast, UniProt P08463 1-113, looked up)
chain: MSKSGVPRLLTASERERLEPFIDQIHYSPRYADDEYEYRHVMLPKAMLKAIPTDYFNPETGTLRILQEEEWRGLGITQSLGWEMYEVHVPEPHILLFKREKDYQMKFSQQRGG
notes: also called p13-Suc1; p13 (Sucl)
Take B1: the binding result is recorded as “binds”.
